In US20220010021A1 (Sanofi, published 2022):
Substitutions are numbered along the chain they refer to. One block for each binder: values may come before it.

Assays:
[1] = biological target: T1, beta-Klotho (KLB) (Homo sapiens (Human), UniProt Q86Z14 1-996); experiment: BLI (Octet) off-rate screening, mAb from supernatant on anti-hIgG Fc sensor, 5 nmol/L KLB;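 also: dissociation followed for 1800 s in D-PBS plus 0.1% BSA, antibody supernatants applied at 25 µg/mL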
T1 construct: also called β-Klotho; not shown: C-terminal His tag of the bought R&D Systems protein
T1 sequence: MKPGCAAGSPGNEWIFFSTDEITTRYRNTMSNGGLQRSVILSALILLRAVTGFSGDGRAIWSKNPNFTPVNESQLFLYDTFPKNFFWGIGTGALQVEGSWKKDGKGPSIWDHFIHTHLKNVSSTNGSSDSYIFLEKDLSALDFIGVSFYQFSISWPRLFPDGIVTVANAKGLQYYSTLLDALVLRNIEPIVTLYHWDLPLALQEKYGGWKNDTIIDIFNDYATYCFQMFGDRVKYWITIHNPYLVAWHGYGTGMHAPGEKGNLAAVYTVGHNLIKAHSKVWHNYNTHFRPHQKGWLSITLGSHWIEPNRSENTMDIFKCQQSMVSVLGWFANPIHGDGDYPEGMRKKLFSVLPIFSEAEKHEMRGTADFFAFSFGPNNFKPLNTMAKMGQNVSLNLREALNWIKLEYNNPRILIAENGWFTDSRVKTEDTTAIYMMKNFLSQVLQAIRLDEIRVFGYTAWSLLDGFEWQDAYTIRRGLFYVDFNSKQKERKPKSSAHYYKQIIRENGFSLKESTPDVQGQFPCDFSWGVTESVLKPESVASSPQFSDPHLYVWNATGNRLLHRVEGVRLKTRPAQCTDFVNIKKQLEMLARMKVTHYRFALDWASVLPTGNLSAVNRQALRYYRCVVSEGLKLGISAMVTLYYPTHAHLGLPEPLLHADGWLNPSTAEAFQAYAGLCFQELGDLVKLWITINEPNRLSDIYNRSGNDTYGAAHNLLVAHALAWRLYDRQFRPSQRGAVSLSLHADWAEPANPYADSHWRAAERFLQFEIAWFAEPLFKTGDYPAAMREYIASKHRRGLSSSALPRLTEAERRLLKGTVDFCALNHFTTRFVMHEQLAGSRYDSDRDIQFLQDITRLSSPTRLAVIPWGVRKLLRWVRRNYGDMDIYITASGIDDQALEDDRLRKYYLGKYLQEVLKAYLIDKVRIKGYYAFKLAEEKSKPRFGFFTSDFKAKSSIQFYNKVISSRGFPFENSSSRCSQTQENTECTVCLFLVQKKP

[2] = biological target: cell surface receptor composed of the tyrosine kinase receptor FGFR1c and co-receptor beta-Klotho (KLB) (human, UniProt P11362 22-822; Q86Z14 1-1044); experiment: cell-based or functional assay
Chain of cell surface receptor composed of the tyrosine kinase receptor FGFR1c and co-receptor beta-Klotho (KLB) (P11362 22-822, one chain of several): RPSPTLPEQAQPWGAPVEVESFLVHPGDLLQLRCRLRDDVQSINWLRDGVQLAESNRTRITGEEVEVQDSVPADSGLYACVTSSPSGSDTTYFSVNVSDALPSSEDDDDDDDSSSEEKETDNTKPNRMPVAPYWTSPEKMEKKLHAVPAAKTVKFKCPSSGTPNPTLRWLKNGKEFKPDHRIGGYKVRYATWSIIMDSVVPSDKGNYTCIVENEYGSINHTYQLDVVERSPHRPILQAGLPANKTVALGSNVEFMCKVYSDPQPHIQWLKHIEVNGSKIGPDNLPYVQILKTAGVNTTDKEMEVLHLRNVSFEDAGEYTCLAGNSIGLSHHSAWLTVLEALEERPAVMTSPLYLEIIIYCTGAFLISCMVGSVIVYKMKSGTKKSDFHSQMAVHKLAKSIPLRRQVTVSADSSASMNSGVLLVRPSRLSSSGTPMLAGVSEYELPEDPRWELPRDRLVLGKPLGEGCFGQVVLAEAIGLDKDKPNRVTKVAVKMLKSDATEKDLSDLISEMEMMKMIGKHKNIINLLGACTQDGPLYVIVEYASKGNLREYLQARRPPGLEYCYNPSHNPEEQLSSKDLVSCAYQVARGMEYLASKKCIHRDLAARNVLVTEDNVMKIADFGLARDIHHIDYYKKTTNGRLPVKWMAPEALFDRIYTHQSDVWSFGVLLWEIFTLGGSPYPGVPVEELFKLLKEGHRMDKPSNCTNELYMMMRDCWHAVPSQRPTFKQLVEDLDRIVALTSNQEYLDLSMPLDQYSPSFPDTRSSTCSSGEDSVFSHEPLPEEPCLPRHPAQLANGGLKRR

B1: 16H7 variant with light chain substitution H96L (antibody, human IgG4 S228P, lambda, V domains shown)
VH: not shown
VL: SYVLTQPPSVSVAPGQTARITCGGNNIGSESVHWYQQKPGQAPVLVVYDDSDRPSGIPERFSGSNSGNTATLTISRVEAGDEADYYCQVWDGNSDLVVFGGGTKLTVLG
notes: IgG4 backbone was used
koff [1]: 0.00013 s⁻¹
Mean E max, Luciferase gene reporter assay [2]: 98%
Mean EC50, Luciferase gene reporter assay [2]: 0.176 nM

B2: 16H7 variant with light chain substitution N93A (antibody, human IgG4 S228P, lambda, V domains shown)
VH: not shown
VL: B1 VL with N93A, L96H
notes: IgG4 backbone was used
koff [1]: 7.5e-06 s⁻¹
Mean E max, Luciferase gene reporter assay [2]: 101%
Mean EC50, Luciferase gene reporter assay [2]: 0.108 nM

B6: 16H7 variant with light chain substitution H96Y (antibody, human IgG4 S228P, lambda, V domains shown)
VH: not shown
VL: B1 VL with L96Y
notes: IgG4 backbone was used
koff [1]: 6.9e-05 s⁻¹
Mean E max, Luciferase gene reporter assay [2]: 103%
Mean EC50, Luciferase gene reporter assay [2]: 0.134 nM

B11: 16H7 variant with light chain substitution N93S (antibody, human IgG4 S228P, lambda, V domains shown)
VH: not shown
VL: B1 VL with N93S, L96H
notes: IgG4 backbone was used
koff [1]: 3.4e-05 s⁻¹
Mean E max, Luciferase gene reporter assay [2]: 101%
Mean EC50, Luciferase gene reporter assay [2]: 0.105 nM

B12: 16H7 variant with light chain substitution N93T (antibody, human IgG4 S228P, lambda, V domains shown)
VH: not shown
VL: B1 VL with N93T, L96H
notes: IgG4 backbone was used
koff [1]: 3.1e-05 s⁻¹
Mean E max, Luciferase gene reporter assay [2]: 103%
Mean EC50, Luciferase gene reporter assay [2]: 0.161 nM

B13: 16H7 variant with light chain substitution H96R (antibody, human IgG4 S228P, lambda, V domains shown)
VH: not shown
VL: B1 VL with L96R
notes: IgG4 backbone was used
koff [1]: 0.00014 s⁻¹
Mean E max, Luciferase gene reporter assay [2]: 102%
Mean EC50, Luciferase gene reporter assay [2]: 0.095 nM

B17: 16H7 variant with light chain substitution N93D (antibody, human IgG4 S228P, lambda, V domains shown)
VH: not shown
VL: B1 VL with N93D, L96H
notes: IgG4 backbone was used
koff [1]: 3.8e-05 s⁻¹
Mean E max, Luciferase gene reporter assay [2]: 108%
Mean EC50, Luciferase gene reporter assay [2]: 0.123 nM

B18: 16H7 variant with light chain substitution N93V (antibody, human IgG4 S228P, lambda, V domains shown)
VH: not shown
VL: B1 VL with N93V, L96H
notes: IgG4 backbone was used
koff [1]: 4e-05 s⁻¹
Mean E max, Luciferase gene reporter assay [2]: 108%
Mean EC50, Luciferase gene reporter assay [2]: 0.139 nM

B20: 16H7 variant with light chain substitution H96W (antibody, human IgG4 S228P, lambda, V domains shown)
VH: not shown
VL: B1 VL with L96W
notes: IgG4 backbone was used
koff [1]: 0.00012 s⁻¹
Mean E max, Luciferase gene reporter assay [2]: 103%
Mean EC50, Luciferase gene reporter assay [2]: 0.155 nM

B21: 16H7 variant with light chain substitution N93R (antibody, human IgG4 S228P, lambda, V domains shown)
VH: not shown
VL: B1 VL with N93R, L96H
notes: IgG4 backbone was used
koff [1]: 5e-05 s⁻¹
Mean E max, Luciferase gene reporter assay [2]: 100%
Mean EC50, Luciferase gene reporter assay [2]: 0.186 nM

B24: 16H7 variant with light chain substitution H96T (antibody, human IgG4 S228P, lambda, V domains shown)
VH: not shown
VL: B1 VL with L96T
notes: IgG4 backbone was used
koff [1]: 1.8e-05 s⁻¹
Mean E max, Luciferase gene reporter assay [2]: 110%
Mean EC50, Luciferase gene reporter assay [2]: 0.11 nM

B25: 16H7 variant with light chain substitution H96V (antibody, human IgG4 S228P, lambda, V domains shown)
VH: not shown
VL: B1 VL with L96V
notes: IgG4 backbone was used
koff [1]: 4.1e-05 s⁻¹
Mean E max, Luciferase gene reporter assay [2]: 91%
Mean EC50, Luciferase gene reporter assay [2]: 0.13 nM

B30: 16H7 variant with light chain substitution H96Q (antibody, human IgG4 S228P, lambda, V domains shown)
VH: not shown
VL: B1 VL with L96Q
notes: IgG4 backbone was used
koff [1]: 5e-05 s⁻¹
Mean E max, Luciferase gene reporter assay [2]: 104%
Mean EC50, Luciferase gene reporter assay [2]: 0.106 nM

B31: 16H7 variant with light chain substitution N93F (antibody, human IgG4 S228P, lambda, V domains shown)
VH: not shown
VL: B1 VL with N93F, L96H
notes: IgG4 backbone was used
koff [1]: 2.2e-06 s⁻¹
Mean E max, Luciferase gene reporter assay [2]: 100%
Mean EC50, Luciferase gene reporter assay [2]: 0.165 nM

B32: 16H7 variant with light chain substitution H96N (antibody, human IgG4 S228P, lambda, V domains shown)
VH: not shown
VL: B1 VL with L96N
notes: IgG4 backbone was used
koff [1]: 4.4e-05 s⁻¹
Mean E max, Luciferase gene reporter assay [2]: 112%
Mean EC50, Luciferase gene reporter assay [2]: 0.143 nM

B33: 16H7 variant with light chain substitution H96S (antibody, human IgG4 S228P, lambda, V domains shown)
VH: not shown
VL: B1 VL with L96S
notes: IgG4 backbone was used
koff [1]: 3e-05 s⁻¹
Mean E max, Luciferase gene reporter assay [2]: 102%
Mean EC50, Luciferase gene reporter assay [2]: 0.097 nM

B34: 16H7 variant with light chain substitution N93C (antibody, human IgG4 S228P, lambda, V domains shown)
VH: not shown
VL: B1 VL with N93C, L96H
notes: IgG4 backbone was used
koff [1]: 5.8e-05 s⁻¹
Mean E max, Luciferase gene reporter assay [2]: 107%
Mean EC50, Luciferase gene reporter assay [2]: 0.148 nM

The remaining lines, values ahead:

koff [1]: 4.3e-05 s⁻¹
Mean E max, Luciferase gene reporter assay [2]: 106%
Mean EC50, Luciferase gene reporter assay [2]: 0.126 nM
B3: 16H7 variant with light chain substitution S94I (antibody, human IgG4 S228P, lambda, V domains shown)
VH: not shown
VL: B1 VL with S94I, L96H
notes: IgG4 backbone was used

koff [1]: 1.2e-05 s⁻¹
Mean E max, Luciferase gene reporter assay [2]: 101%
Mean EC50, Luciferase gene reporter assay [2]: 0.117 nM
B4: 16H7 variant with light chain substitution S94M (antibody, human IgG4 S228P, lambda, V domains shown)
VH: not shown
VL: B1 VL with S94M, L96H
notes: IgG4 backbone was used

koff [1]: 3.4e-05 s⁻¹
Mean E max, Luciferase gene reporter assay [2]: 103%
Mean EC50, Luciferase gene reporter assay [2]: 0.122 nM
B5: 16H7 variant with light chain substitution S94D (antibody, human IgG4 S228P, lambda, V domains shown)
VH: not shown
VL: B1 VL with S94D, L96H
notes: IgG4 backbone was used

koff [1]: 0.00023 s⁻¹
Mean E max, Luciferase gene reporter assay [2]: 104%
Mean EC50, Luciferase gene reporter assay [2]: 0.19 nM
B7: 16H7 variant with light chain substitution V97C (antibody, human IgG4 S228P, lambda, V domains shown)
VH: not shown
VL: B1 VL with L96H, V97C
notes: IgG4 backbone was used

koff [1]: 2.8e-05 s⁻¹
Mean E max, Luciferase gene reporter assay [2]: 108%
Mean EC50, Luciferase gene reporter assay [2]: 0.119 nM
B8: 16H7 variant with light chain substitution S94V (antibody, human IgG4 S228P, lambda, V domains shown)
VH: not shown
VL: B1 VL with S94V, L96H
notes: IgG4 backbone was used

koff [1]: 4.3e-05 s⁻¹
Mean E max, Luciferase gene reporter assay [2]: 103%
Mean EC50, Luciferase gene reporter assay [2]: 0.159 nM
B9: 16H7 variant with light chain substitution S94W (antibody, human IgG4 S228P, lambda, V domains shown)
VH: not shown
VL: B1 VL with S94W, L96H
notes: IgG4 backbone was used

koff [1]: 1e-07 s⁻¹
Mean E max, Luciferase gene reporter assay [2]: 100%
Mean EC50, Luciferase gene reporter assay [2]: 0.132 nM
B10: 16H7 variant with light chain substitution S94F (antibody, human IgG4 S228P, lambda, V domains shown)
VH: not shown
VL: B1 VL with S94F, L96H
notes: IgG4 backbone was used

koff [1]: 1e-07 s⁻¹
Mean E max, Luciferase gene reporter assay [2]: 99%
Mean EC50, Luciferase gene reporter assay [2]: 0.138 nM
B14: 16H7 variant with light chain substitution S94C (antibody, human IgG4 S228P, lambda, V domains shown)
VH: not shown
VL: B1 VL with S94C, L96H
notes: IgG4 backbone was used

koff [1]: 3.3e-05 s⁻¹
Mean E max, Luciferase gene reporter assay [2]: 103%
Mean EC50, Luciferase gene reporter assay [2]: 0.133 nM
B15: 16H7 variant with light chain substitution S94N (antibody, human IgG4 S228P, lambda, V domains shown)
VH: not shown
VL: B1 VL with S94N, L96H
notes: IgG4 backbone was used

koff [1]: 1.4e-05 s⁻¹
Mean E max, Luciferase gene reporter assay [2]: 100%
Mean EC50, Luciferase gene reporter assay [2]: 0.122 nM
B16: 16H7 variant with light chain substitution S94E (antibody, human IgG4 S228P, lambda, V domains shown)
VH: not shown
VL: B1 VL with S94E, L96H
notes: IgG4 backbone was used

koff [1]: 2.1e-05 s⁻¹
Mean E max, Luciferase gene reporter assay [2]: 45%
Mean EC50, Luciferase gene reporter assay [2]: 3.02 nM
B19: 16H7 variant with light chain substitution V97F (antibody, human IgG4 S228P, lambda, V domains shown)
VH: not shown
VL: B1 VL with L96H, V97F
notes: IgG4 backbone was used

koff [1]: 6.2e-05 s⁻¹
Mean E max, Luciferase gene reporter assay [2]: 100%
Mean EC50, Luciferase gene reporter assay [2]: 0.098 nM
B22: 16H7 variant with light chain substitution S94Y (antibody, human IgG4 S228P, lambda, V domains shown)
VH: not shown
VL: B1 VL with S94Y, L96H
notes: IgG4 backbone was used

koff [1]: 4.6e-05 s⁻¹
Mean E max, Luciferase gene reporter assay [2]: 99%
Mean EC50, Luciferase gene reporter assay [2]: 0.107 nM
B23: 16H7 variant with light chain substitution S94A (antibody, human IgG4 S228P, lambda, V domains shown)
VH: not shown
VL: B1 VL with S94A, L96H
notes: IgG4 backbone was used

koff [1]: 6.5e-05 s⁻¹
Mean E max, Luciferase gene reporter assay [2]: 105%
Mean EC50, Luciferase gene reporter assay [2]: 0.108 nM
B26: 16H7 variant with light chain substitution N93Y (antibody, human IgG4 S228P, lambda, V domains shown)
VH: not shown
VL: B1 VL with N93Y, L96H
notes: IgG4 backbone was used

koff [1]: 5.7e-05 s⁻¹
Mean E max, Luciferase gene reporter assay [2]: 104%
Mean EC50, Luciferase gene reporter assay [2]: 0.123 nM
B27: 16H7 variant with light chain substitution S94R (antibody, human IgG4 S228P, lambda, V domains shown)
VH: not shown
VL: B1 VL with S94R, L96H
notes: IgG4 backbone was used

koff [1]: 3.2e-05 s⁻¹
Mean E max, Luciferase gene reporter assay [2]: 109%
Mean EC50, Luciferase gene reporter assay [2]: 0.116 nM
B28: 16H7 variant with light chain substitution S94T (antibody, human IgG4 S228P, lambda, V domains shown)
VH: not shown
VL: B1 VL with S94T, L96H
notes: IgG4 backbone was used

koff [1]: 4.4e-05 s⁻¹
Mean E max, Luciferase gene reporter assay [2]: 103%
Mean EC50, Luciferase gene reporter assay [2]: 0.169 nM
B29: 16H7 variant with light chain substitution S94L (antibody, human IgG4 S228P, lambda, V domains shown)
VH: not shown
VL: B1 VL with S94L, L96H
notes: IgG4 backbone was used
